From patent publication US20050209137A1 (published 2005)

T1: long form of human leptin receptor, stably transfected in BAF/3 cells (cell homogenate) (human, UniProt P48357 22-1165)
T1 construct: whole, on cells; also called WT in BAF/3 cell homogenate; full-size membrane-embedded leptin receptor
T1 sequence (looked up): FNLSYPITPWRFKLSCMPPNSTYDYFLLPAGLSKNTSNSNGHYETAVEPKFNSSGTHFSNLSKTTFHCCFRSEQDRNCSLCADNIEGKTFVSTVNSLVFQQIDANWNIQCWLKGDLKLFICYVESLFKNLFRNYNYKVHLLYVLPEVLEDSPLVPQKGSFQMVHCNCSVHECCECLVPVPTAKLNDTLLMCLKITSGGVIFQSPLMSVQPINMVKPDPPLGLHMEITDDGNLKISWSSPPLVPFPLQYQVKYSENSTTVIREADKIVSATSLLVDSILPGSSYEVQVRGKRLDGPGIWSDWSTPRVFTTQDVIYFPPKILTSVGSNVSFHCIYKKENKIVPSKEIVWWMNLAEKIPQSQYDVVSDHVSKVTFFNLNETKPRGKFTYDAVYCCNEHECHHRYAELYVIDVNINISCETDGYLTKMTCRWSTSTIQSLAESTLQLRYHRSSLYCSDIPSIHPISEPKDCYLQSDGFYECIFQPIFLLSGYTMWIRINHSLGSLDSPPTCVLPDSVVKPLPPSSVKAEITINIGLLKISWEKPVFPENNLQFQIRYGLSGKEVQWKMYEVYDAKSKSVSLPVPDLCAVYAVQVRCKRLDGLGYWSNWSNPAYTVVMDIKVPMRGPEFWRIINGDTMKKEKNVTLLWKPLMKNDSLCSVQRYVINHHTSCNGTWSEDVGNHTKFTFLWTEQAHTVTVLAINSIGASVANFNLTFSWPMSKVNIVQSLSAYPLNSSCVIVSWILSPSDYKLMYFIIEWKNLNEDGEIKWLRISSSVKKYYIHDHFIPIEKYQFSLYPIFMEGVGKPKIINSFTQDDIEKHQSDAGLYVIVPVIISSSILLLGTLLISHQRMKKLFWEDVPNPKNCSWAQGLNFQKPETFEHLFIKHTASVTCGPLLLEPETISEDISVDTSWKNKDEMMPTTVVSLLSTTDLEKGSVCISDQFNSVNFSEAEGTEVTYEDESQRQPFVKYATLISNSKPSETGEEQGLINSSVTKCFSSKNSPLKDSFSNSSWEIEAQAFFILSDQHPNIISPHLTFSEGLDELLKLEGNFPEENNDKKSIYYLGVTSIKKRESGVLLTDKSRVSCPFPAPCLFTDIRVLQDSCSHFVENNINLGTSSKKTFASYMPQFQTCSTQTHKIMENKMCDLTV

B1: recombinant human leptin receptor leptin-binding domain (LBD), amino acids 428-635 of the human leptin receptor (receptor)
chain: MAIDVNINISCETDGYLTKMTCRWSTSTIQSLAESTLQLRYHRSSLYCSDIPSIHPISEPKDCYLQSDGFYECIFQPIFLLSGYTMWIRINHSLGSLDSPPTCVLPDSVVKPLPPSSVKAEITINIGLLKISWEKPVFPENNLQFQIRYGLSGKEVQWKMYEVYDAKSKSVSLPVPDLCAVYAVQVRCKRLDGLGYWSNWSNPAYTVVMD
notes: also called hLBD; human LBD
B2: recombinant chicken leptin receptor binding domain (chLBD), amino acids 419-624 of the chicken leptin receptor (receptor)
chain: MAVDVNINIKCETDGYLTKMTCRWSANPNALLLGSSLQLRYHRSKIYCSNFPSTPPESEVKECHFQRNHSYECTFQPVFLLSGYTMWIELKHSLGTLESSPTCVVPADVVKPLPPSNIKAEITRNDGLLNVSWTNPVFTNDDLKFQIRYAVNREELTWELYEVLSVPTRSAVIEVQLCVEYIVQIRCRALDGLGYWSNWSRSAYAAVKD
notes: also called CLBD
B3: chicken leptin (ligand, UniProt O42164 19-163, looked up)
chain: VPCQIFQDDTKTLIKTIVTRINDISHTSVSAKQRVTGLDFIPGLHPILSLSKMDQTLAVYQQVLTSLPSQNVLQIANDLENLRDLLHLLAFSKSCSLPQTSGLQKPESLDGVLEASLYSTEVVALSRLQGSLQDILQQLDISPEC
notes: also called chLeptin; ChLeptin
B4: ovine leptin (fraction SP) (ligand, UniProt Q28603 1-146, looked up)
chain: VPIRKVQDDTKTLIKTIVTRINDISHTQSVSSKQRVTGLDFIPGLHPLLSLSKMDQTLAIYQQILASLPSRNVIQISNDLENLRDLLHLLAASKSCPLPQVRALESLESLGVVLEASLYSTEVVALSRLQGSLQDMLRQLDLSPGC

Tests used:
[1] = target: B4; assay: cell-based or functional assay
recombinant human leptin [2] = target: T2, recombinant human leptin (human, UniProt P41159 22-167); assay: cell-based or functional assay
T2 sequence (P41159 22-167): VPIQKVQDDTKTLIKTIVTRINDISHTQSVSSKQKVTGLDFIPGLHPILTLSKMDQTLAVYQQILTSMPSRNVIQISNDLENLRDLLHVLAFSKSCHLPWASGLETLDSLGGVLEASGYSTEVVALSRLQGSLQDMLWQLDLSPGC

[3] = target: B4; assay: cell-based or functional assay; remark: listed apart in the source
recombinant human leptin [4] = target: T2, recombinant human leptin; assay: cell-based or functional assay; remark: listed apart in the source
chicken leptin [5] = target: B3; assay: cell-based or functional assay
recombinant human leptin [6] = target: T2, recombinant human leptin; assay: SPR, hLEP immobilized on CM5, LBD in flow
Method: Kinetic Measurements of LBD-hLEP Interactions—All experiments were performed at 25° C. using surface plasmon resonance (SPR) methodology. The kinetics and equilibrium constants for the interaction between hLEP and LBD were determined using the Biacore 3000 system (Uppsala, Sweden). hLEP was immobilized in a flow cell of a research-grade CM5 sensor chip using amine-coupling chemistry (Lofas, S. et al (1990) J. Chem. Soc. Chem. Commun. 21, 1526-1528). The immobilization steps were carried out at a flow rate of 10 μl/min in HBS-EP buffer. The surface was activated for 7 min with a mixture of N-hydroxysuccinimide (0.05 M) and N-ethyl-N′(3-dimethylaminopropyl)-carbodiimide hydrochloride (0.2 M). hLEP was injected at a concentration of 50 μg/ml in 10 mM acetate, pH 3.5, until the desired level (1000 resonance units) was achieved. Ethanolamine (1 M, pH 8.5) was injected for 7 min to block the remaining activated groups. A control surface was prepared by activating the carboxyl groups and then blocking the activated groups by ethanolamine as described. […] Regeneration of the surface after each interaction was performed by using a 10-μl pulse of 10 mM glycine buffer, pH 2. […]
SPR Determination of the Interaction between hLEP and LBD—The interactions of hLEP and LBD were analyzed by comparison with a theoretical model using Chi-square analysis.

recombinant human leptin [7] = target: T2, recombinant human leptin; assay: Scatchard plot (bound/free against bound) of the binding of 125I-hLep to chLBD, inset
[8] = target: B4; assay: gel filtration of hormone:chLBD mixtures at various molar ratios, retention times printed over the peaks
recombinant human leptin [9] = target: T2, recombinant human leptin; assay: SPR
chicken leptin [10] = target: B3; assay: SPR
[11] = target: long form of human leptin receptor, stably transfected in BAF/3 cells (cell homogenate) (human) (UniProt P48357); assay: competition with 125I-hLEP, homogenate of BAF/3 cells with long-form human leptin receptor
[12] = target: B2; assay: inhibition of binding of 125I-hLep to chLBD by unlabeled leptin; the curve only falls to about 66 % at the highest concentration shown (about 10^-4.2 M), the printed value lies beyond the range
Method: Binding Assays—Radiolabeled human ¹²⁵I-leptin served as a ligand, and other (human, ovine, and chicken) nonlabeled leptins served as competitors. The experiments were conducted using either recombinant LBD or homogenates of BAF/3 cells stably transfected with the long form of hLEP receptor. In the latter case, the cells were cultured in Dulbecco's modified Eagle's medium supplemented with 5% fetal calf serum in the presence of IL-3 to minimize leptin-receptor down-regulation until a concentration of 10⁶ cells/ml was reached. Then the cells were spun and stored at −70° C. […] Each tube contained 150 or 200 μl of reaction buffer in the case of the assay with the cells or recombinant LBD, respectively, 100 μl of ¹²⁵I-hLEP (100,000 cpm for cells or 180,000 cpm for binding domain assays), and 100 μl of different leptin solutions (providing 0-5000 ng/tube) in the reaction buffer, and the reaction was started by addition of 150 μl of cell homogenate or 100 μl of LBD (20 ng). The tubes were incubated for 24 h at room temperature. Then the leptin receptor complex was precipitated by adding 250 μl of 1% (w/v) bovine immunoglobulin and 500 μl of 20% (w/v) polyethylene glycol. After thorough mixing, the tubes were incubated for 20 min at 4° C. and centrifuged at 12,000×g for 15 min at 4° C. Then supernatant was carefully aspirated, and the precipitates were counted in a Kontron ?-counter. […]

[13] = target: B1; assay: SPR
[14] = target: T1, long form of human leptin receptor, …; assay: competition of unlabeled leptin with 125I-human leptin for binding to homogenate of BAF/3 cells transfected with the long form of human leptin receptor
Method: (§1) The specific binding (%) in experiments performed with human, ovine, and chicken leptins and their mutants were, respectively, 7.3% in A, and 8.1% in B, and the nonspecific binding was respectively, 5.4 and 14%. All values for specific binding were normalized, and the solid lines and the IC₅₀ values were calculated using the PRIZMA curve-fitting program (Author, A. (1994) GraphPad Prism™, Version 2.0, GraphPad Software Inc., San Diego, Calif.).
(§2) Binding Assays—Radiolabeled human ¹²⁵I-leptin served as a ligand, and other (human, ovine, and chicken) nonlabeled leptins served as competitors. The experiments were conducted using either recombinant LBD or homogenates of BAF/3 cells stably transfected with the long form of hLEP receptor. In the latter case, the cells were cultured in Dulbecco's modified Eagle's medium supplemented with 5% fetal calf serum in the presence of IL-3 to minimize leptin-receptor down-regulation until a concentration of 10⁶ cells/ml was reached. Then the cells were spun and stored at −70° C. […] Then supernatant was carefully aspirated, and the precipitates were counted in a Kontron ?-counter.

[15] = target: B1; assay: competition of unlabeled leptin with 125I-human leptin for binding to soluble recombinant LBD, precipitation of the complex and counting
Method: as §1, §2

Binder: B1
- IC50 (read off the curve) [1]: ~20 nM
- IC50 (read off the curve) (recombinant human leptin [2]): ~20 nM
- molar excess of LBD required to achieve 50% inhibition of leptin-stimulated proliferation of BAF/3 cells with the long form of human leptin receptor [3]: 200 molar excess
- molar excess of LBD required to achieve 50% inhibition of leptin-stimulated proliferation of BAF/3 cells with the long form of human leptin receptor (recombinant human leptin [4]): 200 molar excess
- molar excess of LBD required to achieve 50% inhibition of leptin-stimulated proliferation of BAF/3 cells with the long form of human leptin receptor (chicken leptin [5]): 600 molar excess
- complex half-life (recombinant human leptin [6]): 6.24 min

Binder: B2
- Kd (recombinant human leptin [7]): 3.9 nM
- binding result [8]: binds
- Kd (recombinant human leptin [9]): 78.5 nM
- koff (recombinant human leptin [9]): 0.0143 s⁻¹
- kon (recombinant human leptin [9]): 183000 M⁻¹ s⁻¹
- Kd (chicken leptin [10]): 1300 nM
- koff (chicken leptin [10]): 0.076 s⁻¹
- kon (chicken leptin [10]): 58300 M⁻¹ s⁻¹

Binder: B3
- fold lower capacity to displace than hLEP [11]: 20 fold
- IC50 [12]: 88000 nM
- Kd [13]: 380 nM
- koff [13]: 0.0052 s⁻¹
- kon [13]: 13500 M⁻¹ s⁻¹

Binder: B4
- IC50 (read off the curve) [14]: ~0.6 nM
- IC50 (read off the curve) [15]: ~8 nM
